How the values were obtained:
[1] = target: ChrF-His6, Mn superoxide dismutase ChrF of TnOtchr from Ochrobactrum tritici 5bvl1 (Ochrobactrum tritici 5bvl1); experiment: SEC; Superdex 200 10/300 GL, 0.5 mL/min, 50 mM Tris-HCl, 0.15 M NaCl, pH 7.4; mass from a curve of standard proteins
[2] = target: ChrF-His6, Mn superoxide dismutase ChrF of TnOtchr from Ochrobactrum tritici 5bvl1 (Ochrobactrum tritici 5bvl1); experiment: cross-linking; 10 ug purified enzyme with 0.1 % glutaraldehyde in 20 mM NaCl, 10 mM KCl, 2 mM DTT, 20 mM Hepes pH 7.5; 5, 15 and 30 min at 30 °C; 12 % SDS-PAGE
[3] = target: ChrC-His6, Fe superoxide dismutase ChrC of TnOtchr from Ochrobactrum tritici 5bvl1 (Ochrobactrum tritici 5bvl1); experiment: SEC; Superdex 200 10/300 GL, 0.5 mL/min, 50 mM Tris-HCl, 0.15 M NaCl, pH 7.4; mass from a curve of standard proteins
[4] = target: ChrC-His6, Fe superoxide dismutase ChrC of TnOtchr from Ochrobactrum tritici 5bvl1 (Ochrobactrum tritici 5bvl1); experiment: cross-linking; 10 ug purified enzyme with 0.1 % glutaraldehyde in 20 mM NaCl, 10 mM KCl, 2 mM DTT, 20 mM Hepes pH 7.5; 5, 15 and 30 min at 30 °C; 12 % SDS-PAGE

stoichiometry N [1]	stoichiometry N [2]	stoichiometry N [3]	stoichiometry N [4]	Substance
2	2			ChrF-His6, Mn superoxide dismutase ChrF of TnOtchr from Ochrobactrum tritici 5bvl1 (enzyme)
		4	4	ChrC-His6, Fe superoxide dismutase ChrC of TnOtchr from Ochrobactrum tritici 5bvl1 (enzyme)
